# Test results from paper PMC4867895.
# B1: CmGOX (Cyanidioschyzon merolae strain 10D) (protein)
# chain: MVEKPAVNPATQPLNLAEYHLFAKARLPAMVYGYYASGADDEQTLRDNEEAFRRLRFRPRVLIDVSRVDITKQVMGIDLSFPLMVAPTAMQRMAHPEGELATARAVARIGTVMGLSSWATTSLEDVAAHVPGLPKFFQLYVYKDRAITERLVRRAERAGFRAIALTVDTPQLGRREADIRNQFQLPPHLSLANFADMKDFAQVKGGAGASGLASYVASLIDASLNWNDIAWLKSITRLPILLKGVVTAEDAQRALQYGADGIWISNHGARQLDGVTATIDCLEEVAQSVRGRIPVFIDSGVRRGTDVVKALALGADAVLIGRPIVWGLAVDGEEGVYRLLSLLKDEFKLAMQLCGCQKVSDIRRDLVVRDAFAPYDVRQMLSVKMQSKL
# Substrate: O=C(O)CO
# Experiment: purified protein
# Conditions: co-substrate O2; recombinant His-tagged enzyme
protein,measurement,value
B1,Km,900 ± 200 µM
